Earlier results, collected in publication PMC4487222.

Biological target: CheY (Thermotoga maritima) (UniProt Q56312)
Sequence (Q56312 whole entry): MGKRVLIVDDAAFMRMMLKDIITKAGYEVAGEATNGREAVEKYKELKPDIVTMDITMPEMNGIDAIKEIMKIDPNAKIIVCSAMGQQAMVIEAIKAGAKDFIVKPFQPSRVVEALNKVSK

CheA, sequence (Q56310 whole entry): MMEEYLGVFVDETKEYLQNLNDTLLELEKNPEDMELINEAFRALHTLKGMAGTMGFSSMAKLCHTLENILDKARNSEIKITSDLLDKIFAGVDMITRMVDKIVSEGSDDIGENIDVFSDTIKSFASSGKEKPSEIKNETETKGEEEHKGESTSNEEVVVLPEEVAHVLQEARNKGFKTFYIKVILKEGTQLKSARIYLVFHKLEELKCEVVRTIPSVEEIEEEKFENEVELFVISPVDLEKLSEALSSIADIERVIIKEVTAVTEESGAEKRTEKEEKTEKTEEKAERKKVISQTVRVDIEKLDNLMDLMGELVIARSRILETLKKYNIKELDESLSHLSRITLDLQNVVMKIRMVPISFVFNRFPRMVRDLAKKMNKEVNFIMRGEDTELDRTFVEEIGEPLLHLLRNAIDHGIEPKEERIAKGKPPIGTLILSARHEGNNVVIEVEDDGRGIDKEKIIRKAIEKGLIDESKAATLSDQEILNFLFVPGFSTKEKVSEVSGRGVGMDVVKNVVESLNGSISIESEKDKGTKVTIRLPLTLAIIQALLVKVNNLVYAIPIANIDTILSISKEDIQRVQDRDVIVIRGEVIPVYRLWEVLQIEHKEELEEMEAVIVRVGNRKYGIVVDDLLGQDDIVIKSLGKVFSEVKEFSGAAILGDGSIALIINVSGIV

Kd: 200 nM
Substance: CheA (from UniProt Q56310)
